The values below come from PMC3568127.

This assay concerns the target NRP1 (neuropilin 1) expressed from an adenovirus on DU145 cells (UniProt O14786). The assay can be described thus: cell based binding displacement assay (biotinylated ligand, streptavidin-HRP, A450); DU145 cells infected with Ad.NRP1 in 96-well plates; various concentrations of competitor then 1 nM bt-VEGF-A165; binding medium with or without 0.1% BSA; 2 h at room temperature; apparent affinity judged by IC50.

NRP1 (neuropilin 1) expressed from an adenovirus on DU145 cells, sequence (O14786 22-923): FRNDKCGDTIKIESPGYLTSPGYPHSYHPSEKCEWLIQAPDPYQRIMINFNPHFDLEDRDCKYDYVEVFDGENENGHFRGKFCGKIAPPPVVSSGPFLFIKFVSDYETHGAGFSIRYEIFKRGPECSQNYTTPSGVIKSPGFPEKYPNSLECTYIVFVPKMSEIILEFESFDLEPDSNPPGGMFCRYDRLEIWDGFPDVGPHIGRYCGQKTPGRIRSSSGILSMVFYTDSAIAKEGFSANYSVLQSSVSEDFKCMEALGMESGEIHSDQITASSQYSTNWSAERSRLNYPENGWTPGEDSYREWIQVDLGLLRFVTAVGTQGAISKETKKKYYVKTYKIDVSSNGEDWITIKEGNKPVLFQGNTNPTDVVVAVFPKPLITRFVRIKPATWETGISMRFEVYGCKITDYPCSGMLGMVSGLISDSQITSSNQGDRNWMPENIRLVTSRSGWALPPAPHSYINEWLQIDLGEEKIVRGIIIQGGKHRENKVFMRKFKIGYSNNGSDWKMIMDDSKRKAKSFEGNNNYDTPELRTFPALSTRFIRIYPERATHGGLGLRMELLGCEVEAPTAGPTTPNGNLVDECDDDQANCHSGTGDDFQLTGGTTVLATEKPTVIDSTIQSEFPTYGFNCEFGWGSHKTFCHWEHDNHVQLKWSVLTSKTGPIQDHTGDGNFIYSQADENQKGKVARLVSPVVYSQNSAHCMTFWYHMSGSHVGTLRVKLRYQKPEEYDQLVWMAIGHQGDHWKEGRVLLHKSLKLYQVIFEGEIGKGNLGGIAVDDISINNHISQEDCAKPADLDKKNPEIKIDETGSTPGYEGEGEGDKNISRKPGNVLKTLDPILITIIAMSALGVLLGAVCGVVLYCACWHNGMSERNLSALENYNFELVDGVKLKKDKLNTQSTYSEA

What is called IC50 is the concentration at which inhibition is half-maximal. As for “VEGF-A165-HBD (the forms of the cell based assay: with and without the His6-tag)”, the IC50 lay within 100 to 200 nM.
